According to PMC10397247:
Blank lines part the entries; values can stand above or below the binder they belong to.

Key:
[1] = biological target: GCN2_T; assay: two-hybrid library CCmax; details: mean of both orientations;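 note: natural log of median RNA to DNA barcode read ratio; higher means stronger binding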
[2] = biological target: T1, 4H2721-AA; assay: two-hybrid library CCmax; details: mean of both orientations;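 note: natural log of median RNA to DNA barcode read ratio; higher means stronger binding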
T1 chain: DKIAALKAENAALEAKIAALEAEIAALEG

[3] = biological target: T2, 4H465-AA; assay: two-hybrid library CCmax; details: mean of both orientations;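 note: natural log of median RNA to DNA barcode read ratio; higher means stronger binding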
T2 chain: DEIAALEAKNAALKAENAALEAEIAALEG

[4] = biological target: T3, 4H486-AA; assay: two-hybrid library CCmax; details: mean of both orientations;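 note: natural log of median RNA to DNA barcode read ratio; higher means stronger binding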
T3 chain: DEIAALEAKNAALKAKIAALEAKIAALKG

[5] = biological target: T4, 4H58-AA; assay: two-hybrid library CCmax; details: mean of both orientations;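 note: natural log of median RNA to DNA barcode read ratio; higher means stronger binding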
T4 chain: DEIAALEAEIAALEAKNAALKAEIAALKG

[6] = biological target: T5, 4H140-AA; assay: two-hybrid library CCmax;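 note: natural log of median RNA to DNA barcode read ratio; higher means stronger binding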
T5 chain: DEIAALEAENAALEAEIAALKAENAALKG

[7] = biological target: T6, 4H3365-AA; assay: two-hybrid library CCmax; details: mean of both orientations
T6 chain: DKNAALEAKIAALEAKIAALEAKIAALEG

[8] = biological target: 4H_GCN4; assay: two-hybrid library CCmax
[9] = biological target: T7, 4H3020-AA; assay: two-hybrid library CCmax; details: mean of both orientations
T7 chain: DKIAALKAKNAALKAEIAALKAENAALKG

[10] = biological target: T8, 4H2600-AA; assay: two-hybrid library CCmax; details: mean of both orientations
T8 chain: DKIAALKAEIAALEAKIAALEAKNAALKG

[11] = biological target: T9, 4H2750-AA; assay: two-hybrid library CCmax; details: mean of both orientations
T9 chain: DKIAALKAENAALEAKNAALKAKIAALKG

[12] = biological target: T10, 4H3651-AA; assay: two-hybrid library CCmax; details: mean of both orientations
T10 chain: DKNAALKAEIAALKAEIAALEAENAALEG

[13] = biological target: T11, 4H_BCR; assay: two-hybrid library CCmax; details: mean of both orientations
T11 chain: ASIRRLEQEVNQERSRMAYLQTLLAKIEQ

[14] = biological target: T12, 4H3782-AA; assay: two-hybrid library CCmax; details: mean of both orientations
T12 chain: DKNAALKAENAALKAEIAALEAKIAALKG

[15] = biological target: T13, 4H355-AA; assay: two-hybrid library CCmax; details: mean of both orientations
T13 chain: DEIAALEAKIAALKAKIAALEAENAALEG

[16] = biological target: T14, 4H535-AA; assay: two-hybrid library CCmax; details: mean of both orientations
T14 chain: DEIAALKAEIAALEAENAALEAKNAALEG

[17] = biological target: T15, 4H3705-AA; assay: two-hybrid library CCmax; details: mean of both orientations
T15 chain: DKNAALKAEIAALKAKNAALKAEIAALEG

[18] = biological target: T16, 4H1802-AA; assay: two-hybrid library CCmax; details: mean of both orientations
T16 chain: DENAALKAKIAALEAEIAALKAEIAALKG

[19] = biological target: T17, 4H_APH; assay: two-hybrid library CCmax; details: mean of both orientations
T17 chain: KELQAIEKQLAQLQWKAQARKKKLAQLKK

[20] = biological target: T18, 4H2898-AA; assay: two-hybrid library CCmax; details: mean of both orientations
T18 chain: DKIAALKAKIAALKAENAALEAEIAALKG

[21] = biological target: T19, 4H895-AA; assay: two-hybrid library CCmax; details: mean of both orientations
T19 chain: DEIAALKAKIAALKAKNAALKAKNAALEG

[22] = biological target: T20, 4H235-bA; assay: two-hybrid library CCNG1
T20 chain: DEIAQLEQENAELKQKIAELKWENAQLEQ

[23] = biological target: T21, 4H2518-bA; assay: two-hybrid library CCNG1
T21 chain: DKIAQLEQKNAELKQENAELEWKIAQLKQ

[24] = biological target: T22, 4H949-bA; assay: two-hybrid library CCNG1
T22 chain: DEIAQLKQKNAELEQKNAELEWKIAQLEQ

[25] = biological target: T23, 4H3364-bA; assay: two-hybrid library CCNG1
T23 chain: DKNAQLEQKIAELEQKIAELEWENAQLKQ

[26] = biological target: T24, 4H2233-bA; assay: two-hybrid library CCNG1
T24 chain: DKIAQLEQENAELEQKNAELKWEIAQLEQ

[27] = biological target: T25, 4H2253-bA; assay: two-hybrid library CCNG1
T25 chain: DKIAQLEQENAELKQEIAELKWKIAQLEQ

[28] = biological target: T26, 4H2859-bA; assay: two-hybrid library CCNG1
T26 chain: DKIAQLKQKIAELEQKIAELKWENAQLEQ

[29] = biological target: T27, 4H730-bA; assay: two-hybrid library CCNG1
T27 chain: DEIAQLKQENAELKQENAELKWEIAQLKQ

[30] = biological target: T28, 4H349-bA; assay: two-hybrid library CCNG1
T28 chain: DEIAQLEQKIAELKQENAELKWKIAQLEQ

[31] = biological target: T29, 4H2444-bA; assay: two-hybrid library CCNG1
T29 chain: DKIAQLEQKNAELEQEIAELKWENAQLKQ

[32] = biological target: T30, 4H2931-bA; assay: two-hybrid library CCNG1
T30 chain: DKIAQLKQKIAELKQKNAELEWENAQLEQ

[33] = biological target: T31, 4H2585-bA; assay: two-hybrid library CCNG1
T31 chain: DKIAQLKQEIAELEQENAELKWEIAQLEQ

[34] = biological target: T32, 4H56-bA; assay: two-hybrid library CCNG1
T32 chain: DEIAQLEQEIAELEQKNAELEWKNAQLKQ

[35] = biological target: T33, 4H2760-bA; assay: two-hybrid library CCNG1
T33 chain: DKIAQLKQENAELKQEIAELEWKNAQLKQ

[36] = biological target: T34, 4H796-bA; assay: two-hybrid library CCNG1
T34 chain: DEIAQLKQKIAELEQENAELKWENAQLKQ

[37] = biological target: T35, 4H264-bA; assay: two-hybrid library CCNG1
T35 chain: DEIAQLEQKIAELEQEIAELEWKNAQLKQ

[38] = biological target: T36, 4H3041-bA; assay: two-hybrid library CCNG1
T36 chain: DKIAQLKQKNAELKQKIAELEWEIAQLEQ

[39] = biological target: T37, 4H932-bA; assay: two-hybrid library CCNG1
T37 chain: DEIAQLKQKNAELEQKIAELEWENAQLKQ

[40] = biological target: T38, 4H3297-bA; assay: two-hybrid library CCNG1
T38 chain: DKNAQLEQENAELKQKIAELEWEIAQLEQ

[41] = biological target: T39, 4H3381-bA; assay: two-hybrid library CCNG1
T39 chain: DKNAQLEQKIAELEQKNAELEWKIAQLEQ

[42] = biological target: T40, 4H1348-bH; assay: two-hybrid library CCNG1
T40 chain: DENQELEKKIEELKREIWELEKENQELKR

[43] = biological target: T41, 4H3974-bH; assay: two-hybrid library CCNG1
T41 chain: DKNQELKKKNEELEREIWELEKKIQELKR

[44] = biological target: T42, 4H591-bH; assay: two-hybrid library CCNG1
T42 chain: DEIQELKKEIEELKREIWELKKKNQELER

[45] = biological target: T43, 4H3162-bH; assay: two-hybrid library CCNG1
T43 chain: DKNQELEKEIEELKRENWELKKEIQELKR

[46] = biological target: T44, 4H3462-bH; assay: two-hybrid library CCNG1
T44 chain: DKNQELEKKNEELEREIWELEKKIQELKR

[47] = biological target: T45, 4H3628-bH; assay: two-hybrid library CCNG1
T45 chain: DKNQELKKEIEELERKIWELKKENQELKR

[48] = biological target: T46, 4H1449-bH; assay: two-hybrid library CCNG1
T46 chain: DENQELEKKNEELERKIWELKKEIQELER

[49] = biological target: T47, 4H1985-bH; assay: two-hybrid library CCNG1
T47 chain: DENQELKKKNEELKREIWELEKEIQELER

[50] = biological target: T48, 4H3185-bN; assay: two-hybrid library CCNG1
T48 chain: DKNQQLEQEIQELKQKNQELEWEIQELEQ

[51] = biological target: T49, 4H3277-bH; assay: two-hybrid library CCNG1
T49 chain: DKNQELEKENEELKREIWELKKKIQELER

[52] = biological target: T50, 4H626-bH; assay: two-hybrid library CCNG1
T50 chain: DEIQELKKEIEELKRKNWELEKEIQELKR

[53] = biological target: T51, 4H1899-bH; assay: two-hybrid library CCNG1
T51 chain: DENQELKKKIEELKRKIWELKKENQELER

[54] = biological target: T52, 4H3858-bH; assay: two-hybrid library CCNG1
T52 chain: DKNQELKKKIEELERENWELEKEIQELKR

[55] = biological target: T53, 4H3817-bH; assay: two-hybrid library CCNG1
T53 chain: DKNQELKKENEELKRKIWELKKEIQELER

[56] = biological target: T54, 4H570-bH; assay: two-hybrid library CCNG1
T54 chain: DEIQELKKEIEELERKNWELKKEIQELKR

[57] = biological target: T55, 4H1710-bH; assay: two-hybrid library CCNG1
T55 chain: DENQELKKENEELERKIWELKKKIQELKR

[58] = biological target: T56, 4H3497-bH; assay: two-hybrid library CCNG1
T56 chain: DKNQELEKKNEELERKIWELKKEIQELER

[59] = biological target: T57, 4H3175-bH; assay: two-hybrid library CCNG1
T57 chain: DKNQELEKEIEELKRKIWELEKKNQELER

[60] = biological target: T58, 4H3298-bH; assay: two-hybrid library CCNG1
T58 chain: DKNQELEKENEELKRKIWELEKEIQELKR

[61] = biological target: T59, 4H850-bH; assay: two-hybrid library CCNG1
T59 chain: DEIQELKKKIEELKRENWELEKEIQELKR

[62] = biological target: T60, 4H1544-bH; assay: two-hybrid library CCNG1
T60 chain: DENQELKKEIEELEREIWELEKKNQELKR

[63] = biological target: T61, 4H1373-bH; assay: two-hybrid library CCNG1
T61 chain: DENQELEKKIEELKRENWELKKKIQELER

[64] = biological target: T62, 4H906-bH; assay: two-hybrid library CCNG1
T62 chain: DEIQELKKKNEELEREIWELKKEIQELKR

[65] = biological target: T63, 4H3926-bH; assay: two-hybrid library CCNG1
T63 chain: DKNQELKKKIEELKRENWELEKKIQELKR

[66] = biological target: T64, 4H3613-bH; assay: two-hybrid library CCNG1
T64 chain: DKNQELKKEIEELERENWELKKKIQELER

Chain of 4H_GCN4 (chain, as listed by the source): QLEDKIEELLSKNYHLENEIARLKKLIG

interaction score [1]: -1.08
interaction score [2]: -1.25
interaction score [3]: -1.51
interaction score [4]: -0.379
interaction score [5]: 1.01
interaction score [6]: 1.28
interaction score [7]: -1.08
interaction score [8]: -0.95
interaction score [9]: 2.23
interaction score [10]: -1.83
interaction score [11]: -0.883
interaction score [12]: -1.02
interaction score [13]: -1.18
interaction score [14]: -0.5
interaction score [15]: -1.06
interaction score [16]: -1.56
interaction score [17]: 1.36
interaction score [18]: -1.67
interaction score [19]: -2.79
interaction score [20]: -0.325
interaction score [21]: -1.44
B1: 4H140-AA (peptide)
chain: DEIAALEAENAALEAEIAALKAENAALKG

interaction score [22]: -1.01
interaction score [23]: 2.31
interaction score [24]: -1
interaction score [25]: -0.979
interaction score [26]: -0.789
interaction score [27]: -1.28
interaction score [28]: -0.945
interaction score [29]: -1.24
interaction score [30]: -1.43
interaction score [31]: -1.1
interaction score [32]: -1.08
interaction score [33]: -1.22
interaction score [34]: -1.39
interaction score [35]: -0.641
interaction score [36]: -1.42
interaction score [37]: -1.45
interaction score [38]: 0.018
interaction score [39]: -1.01
interaction score [40]: -0.632
interaction score [41]: -0.976
B2: 4H2233-bA (peptide)
chain: DKIAQLEQENAELEQKNAELKWEIAQLEQ

interaction score [42]: 0.814
interaction score [43]: 1.36
interaction score [44]: -1.39
interaction score [45]: 0.415
interaction score [46]: 0.558
interaction score [47]: 1.42
interaction score [48]: 1.19
interaction score [49]: 0.722
interaction score [50]: -1.2
interaction score [51]: -0.13
interaction score [52]: -1.01
interaction score [53]: 0.883
interaction score [54]: 0.0862
interaction score [55]: 0.205
interaction score [56]: -0.807
interaction score [57]: -0.0273
interaction score [58]: 0.0523
interaction score [59]: 0.435
interaction score [60]: 0.0904
interaction score [61]: 0.659
interaction score [62]: 1.3
interaction score [63]: 0.103
interaction score [64]: -0.14
interaction score [65]: 0.857
interaction score [66]: -1.69
B3: 4H1348-bH (peptide)
chain: DENQELEKKIEELKREIWELEKENQELKR
